In patent US20110002926A1 (MEDICAL RESEARCH COUNCIL, published 2011):
Where no end group is shown, it is not given here.

Columns and labels:
[1] = target: T1, peptide H6 (AP33 mimotope) (not fully specified (residue 16, C-terminus); printed as VELRNLGGTWRPGSGK-biotin; also: biotin at C-terminal GSGK, site not given here); assay: peptide ELISA, biotinylated peptide on streptavidin, COS7 supernatant, OD 655 nm
T1 construct: Mimotope for AP33 identified by phage display; captured on streptavidin plates; also called mimotope H6; H6 mimotope
T1 peptide: VELRNLGGTWRPGSGK

E2 peptide B1 = target: T2, E2 peptide B1 (not fully specified (residue 16, C-terminus); also: biotin at C-terminal GSGK, site not given here); assay: as above
T2 peptide: NLINTNGSWHINGSGK

Peptide D3 = target: T3, Peptide D3 (also: C-terminal linker GSGK-biotin, biotin attachment not given here); assay: as above
T3 peptide: QLINTNGSWHINGSGK

[2] = target: HCV E1E2 glycoproteins of isolate 5.15.11 on HCVpp (Hepatitis C virus genotype 5); assay: cell-based or functional assay
[3] = target: HCV E1E2 glycoproteins of isolate 1B5.23 on HCVpp (Hepatitis C virus genotype 1); assay: cell-based or functional assay
[4] = target: HCV E1E2 glycoproteins of isolate 2A2.4 on HCVpp (Hepatitis C virus genotype 2); assay: cell-based or functional assay
[5] = target: HCV E1E2 glycoproteins of genotype 3a F4/2-35 on HCVpp (Hepatitis C virus genotype 3a); assay: cell-based or functional assay
[6] = target: HCV E1E2 glycoproteins of isolate 2B1.1 on HCVpp (Hepatitis C virus genotype 2); assay: cell-based or functional assay
[7] = target: HCV E1E2 glycoproteins of isolate 4.21.16 on HCVpp (Hepatitis C virus genotype 4); assay: cell-based or functional assay
[8] = target: HCV E1E2 glycoproteins of genotype 2a JFH1 on HCVpp (Hepatitis C virus genotype 2a, UniProt Q99IB8 384-750; Q99IB8 192-383); assay: cell-based or functional assay
Sequence of HCV E1E2 glycoproteins of genotype 2a JFH1 on HCVpp (Q99IB8 384-750 limits assumed, chain 1 of 2): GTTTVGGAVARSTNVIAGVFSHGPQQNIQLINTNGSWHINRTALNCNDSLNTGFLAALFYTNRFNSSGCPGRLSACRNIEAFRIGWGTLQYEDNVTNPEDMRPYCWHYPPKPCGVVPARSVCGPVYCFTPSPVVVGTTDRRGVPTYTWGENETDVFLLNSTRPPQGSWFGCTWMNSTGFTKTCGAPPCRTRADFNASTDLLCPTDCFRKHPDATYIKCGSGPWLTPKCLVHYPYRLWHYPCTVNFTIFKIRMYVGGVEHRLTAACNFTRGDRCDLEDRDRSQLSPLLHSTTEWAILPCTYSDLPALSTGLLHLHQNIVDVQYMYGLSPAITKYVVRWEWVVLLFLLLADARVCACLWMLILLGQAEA
Sequence of HCV E1E2 glycoproteins of genotype 2a JFH1 on HCVpp (Q99IB8 192-383 limits assumed, chain 2 of 2): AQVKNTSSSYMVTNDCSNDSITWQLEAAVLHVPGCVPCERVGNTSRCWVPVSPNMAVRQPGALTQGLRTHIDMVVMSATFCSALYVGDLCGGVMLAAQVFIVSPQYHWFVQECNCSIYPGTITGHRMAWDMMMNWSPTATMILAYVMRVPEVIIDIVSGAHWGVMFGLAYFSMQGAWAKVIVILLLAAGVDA

[9] = target: HCV E1E2 glycoproteins of isolate 1A20.8 on HCVpp (Hepatitis C virus genotype 1); assay: cell-based or functional assay
[10] = target: HCV E1E2 glycoproteins of isolate 6.5.8 on HCVpp (Hepatitis C virus genotype 6); assay: cell-based or functional assay
[11] = target: T4, soluble HCV E2 (sE2661), HIS-tagged, baculovirus expressed (Hepatitis C virus (genotype )); assay: BIAcore SPR, antibody captured on anti-human Fc chip, sE2 1.56-50 nM injected, 1:1 Langmuir fit
T4 construct: extracellular domain; also called soluble E2

[12] = target: HCV E1E2 glycoproteins of genotype 2a (J6) (Hepatitis C virus genotype 2a (J6), UniProt P26660 384-750; P26660 192-383); assay: cell-based or functional assay
[13] = target: HCV E1E2 glycoproteins of genotype 1b (Con1) (Hepatitis C virus genotype 1b (Con1), UniProt Q9WMX2 384-746; Q9WMX2 192-383); assay: cell-based or functional assay
Sequence of HCV E1E2 glycoproteins of genotype 1b (Con1) (Q9WMX2 384-746 limits assumed, chain 1 of 2): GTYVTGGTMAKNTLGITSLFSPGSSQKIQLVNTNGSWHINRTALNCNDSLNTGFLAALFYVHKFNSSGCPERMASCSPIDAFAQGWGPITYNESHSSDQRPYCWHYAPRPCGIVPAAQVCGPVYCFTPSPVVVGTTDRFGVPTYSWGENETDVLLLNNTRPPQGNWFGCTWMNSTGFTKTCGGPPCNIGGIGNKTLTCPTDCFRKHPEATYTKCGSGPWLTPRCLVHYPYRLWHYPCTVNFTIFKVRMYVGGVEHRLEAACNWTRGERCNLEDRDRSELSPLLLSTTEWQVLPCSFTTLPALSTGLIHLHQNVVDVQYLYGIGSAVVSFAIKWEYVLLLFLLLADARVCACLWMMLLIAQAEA
Sequence of HCV E1E2 glycoproteins of genotype 1b (Con1) (Q9WMX2 192-383 limits assumed, chain 2 of 2): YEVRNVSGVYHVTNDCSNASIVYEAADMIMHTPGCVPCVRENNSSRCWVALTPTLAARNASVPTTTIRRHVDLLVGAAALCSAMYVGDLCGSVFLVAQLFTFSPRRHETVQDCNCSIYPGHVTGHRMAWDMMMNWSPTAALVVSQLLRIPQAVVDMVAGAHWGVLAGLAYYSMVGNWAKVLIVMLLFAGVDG

[14] = target: T5, HCV E2 as part of the E1E2 heterodimer expressed on the surface of 293T cells (Hepatitis C virus (genotype )); assay: Scatchard analysis, 125I-antibody competition with unlabeled antibody on E1E2-transfected 293T cells
T5 construct: whole, on cells; also called E1E2 Scatchard; cell surface expressed E2

B1: RHb-h/Vl (humanized heavy chain RHb-h with chimeric AP33 light chain) (antibody, V domains shown)
VH: QVQLQESGPGLVKPSETLSLTCTVSGDSITSGYWNWIRQPPGRALEYMGYISYSGSTYYNLSLRSRITISRDTSKNQYSLRLSSVTAADTAMYYCALITTTTYAMDYWGQGTTVTVS
VL: NIVLTQSPVSLAVSLGQRATISCRASESVDGYGNSFLHWFQQKPGQPPKLLIYLASNLNSGVPARFSGSGSRTDFTLTIDPVEADDAATYYCQQNNVDPWTFGGGTKLEIK
notes: also called RHb-h/V1; the humanized heavy chain
EC50 (read off the curve) [1]: ~0.02 µg/mL | binding result (E2 peptide B1): no binding (tested: about 500 ng/ml) | EC50 (read off the curve) (Peptide D3): ~0.02 µg/mL

B2: humanized AP33 antibody RH-C/RK2b (antibody, V domains shown)
VH: QVQLQESGPGLVKPSETLSLTCTVSGDSITSGYWNWIRQPPGRALEWMGYISYSGSTYYNLSLRSRITISRDTSKNQYSLRLSSVTAADTAMYYCALITTTTYAMDYWGQGTTVTVSS
VL: EIVLTQSPSSLSASVGDRVTITCRASESVDGYGNSFLHWFQQKPGKAPKLLIYLASNLNSGVPSRFSGSGSGTDFTLTISSLQPEDFATYYCQQNNVDPWTFGQGTKLEIK
notes: also called RH-C antibody
IC50 of HCVpp infection of Huh-7 cells (luciferase) [2]: 0.053 µg/mL | IC90 of HCVpp infection of Huh-7 cells (luciferase) [2]: 0.82 µg/mL | IC50 of HCVpp infection of Huh-7 cells (luciferase) [3]: 0.9 µg/mL | IC90 of HCVpp infection of Huh-7 cells (luciferase) [3]: 8.3 µg/mL | IC50 of HCVpp infection of Huh-7 cells (luciferase) [4]: 0.51 µg/mL | IC90 of HCVpp infection of Huh-7 cells (luciferase) [4]: 6 µg/mL | IC50 of HCVpp infection of Huh-7 cells (luciferase) [5]: < 0.41 µg/mL | IC90 of HCVpp infection of Huh-7 cells (luciferase) [5]: 2.15 µg/mL | IC50 of HCVpp infection of Huh-7 cells (luciferase) [6]: 3 µg/mL | IC90 of HCVpp infection of Huh-7 cells (luciferase) [6]: > 15 µg/mL | IC50 of HCVpp infection of Huh-7 cells (luciferase) [7]: < 0.41 µg/mL | IC90 of HCVpp infection of Huh-7 cells (luciferase) [7]: 0.92 µg/mL | IC50 of HCVpp infection of Huh-7 cells (luciferase) [8]: 0.64 µg/mL | IC90 of HCVpp infection of Huh-7 cells (luciferase) [8]: 7 µg/mL | IC50 of HCVpp infection of Huh-7 cells (luciferase) [9]: 1.6 µg/mL | IC90 of HCVpp infection of Huh-7 cells (luciferase) [9]: 15 µg/mL | IC50 of HCVpp infection of Huh-7 cells (luciferase) [10]: < 0.41 µg/mL | IC90 of HCVpp infection of Huh-7 cells (luciferase) [10]: 1.8 µg/mL | Kd [11]: 3.8 nM | EC50 of HCVpp entry into Huh-7.5 cells (luciferase) [12]: 0.793 µg/mL | neutralization of HCVcc infection of Huh-7.5 cells (RT-qPCR), fold against AP33 [12]: ≥ 4.7 fold | EC50 of HCVpp entry into Huh-7.5 cells (luciferase) [13]: 0.511 µg/mL | Kd [14]: 5 nM
